± gives the standard error. For part of these data: Variants at the floor of the assay were thinned out.
B1: glmS ribozyme (parent)
chain: AUAAAAGCGCCAGAACUACAGAAAUGUAGUUGACGAGGAGGAGGUUUAUCGAAUUUUCGGCGGAUGCCUCCAAA

Legend:
Settings in all cases: with glucosamine-6-phosphate
[1] = variants of: B1; test: kcat; higher = faster cleavage; RNA array
Summary of the method: (§1)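 Using a hybridised Cy3 probe at 37 °C, barcoded ribozyme variants transcribed in situ by E. coli RNA polymerase on sequenced MiSeq chips were monitored across tiles imaged over ~14 h. The flow contained glucosamine-6-phosphate from 40 μM to 10 mM in HEPES/KCl/Mg(OAc)2 buffer. Signals were normalised to baseline and to non-cleaving reference variants before per-tile medians were fit to one- or two-exponential decays to yield kobs. Weighted Michaelis–Menten fits across concentrations gave kcat and KM.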

[2] = variants of: B1; test: KM; higher = weaker cofactor use; RNA array
Summary of the method: as §1

[3] = variants of: B1; test: self-cleavage kobs at 160 uM GlcN6P; higher = faster cleavage; RNA array
Summary of the method: as §1

[4] = variants of: B1; test: self-cleavage kobs at 2500 uM GlcN6P; higher = faster cleavage; RNA array
Summary of the method: as §1

[5] = variants of: B1; test: self-cleavage kobs at 10000 uM GlcN6P; higher = faster cleavage; RNA array
Summary of the method: as §1

[6] = variants of: B1; test: self-cleavage kobs at 640 uM GlcN6P; higher = faster cleavage; RNA array
Summary of the method: as §1

[7] = variants of: B1; test: self-cleavage kobs at 40 uM GlcN6P; higher = faster cleavage; RNA array
Summary of the method: as §1

Variant | kcat [1] [s⁻¹] | KM [2] [µM] | self-cleavage kobs at 160 uM GlcN6P [3] [s⁻¹] | self-cleavage kobs at 2500 uM GlcN6P [4] [s⁻¹] | self-cleavage kobs at 10000 uM GlcN6P [5] [s⁻¹] | self-cleavage kobs at 640 uM GlcN6P [6] [s⁻¹] | self-cleavage kobs at 40 uM GlcN6P [7] [s⁻¹]
G37A A48C | 1.56e-05 ± 6e-07 | 1270 ± 290 | < 1e-05 |  |  |  | 
A33U U69C | 7.22e-05 ± 1.2e-06 | 1080 ± 92 |  | 5.12e-05 ± 1.2e-05 | 6.49e-05 ± 9.5e-06 |  | 
A33G G59U C68A C71A | 2.2e-05 ± 6.5e-06 |  |  |  |  |  | 
G37A U46G | 0.000363 ± 0.00014 |  | 4.31e-05 ± 1.7e-05 | 0.000159 ± 2.3e-05 | 0.000421 ± 6.2e-05 | 0.000102 ± 1.4e-05 | 
A33U A53G | 3.38e-05 ± 6.8e-06 |  |  | 3.39e-05 ± 1e-05 | 2.98e-05 ± 6.7e-06 |  | < 1e-05
U31G U55G U56C | 0.00133 ± 0.00026 | 4490 ± 1500 | 7.22e-05 ± 2.4e-05 | 0.000395 ± 9.8e-05 | 0.000948 ± 0.00012 | 0.000162 ± 3.4e-05 | 
G37A U69C | 0.0003 ± 5.9e-05 | 1170 ± 530 |  | 0.000167 ± 3.3e-05 | 0.000325 ± 5.8e-05 | 0.000116 ± 2.2e-05 | 
G37C C71A | 1.96e-05 ± 6.3e-06 |  |  |  |  |  | 
G37C C71U | 3.39e-05 ± 1.3e-06 | 662 ± 140 |  | 2.55e-05 ± 9.5e-06 | 3.23e-05 ± 8.2e-06 |  | 
A33U G66U | 1.11e-05 ± 1.2e-06 |  | < 1e-05 |  |  |  | 
G37C C68G | 1.8e-05 ± 3.8e-06 |  |  |  |  |  | 
A33U C71U | 0.000125 ± 1.3e-05 | 2840 ± 690 |  | 5.58e-05 ± 5.4e-06 | 0.0001 ± 9.1e-06 | 3.01e-05 ± 7.2e-06 | 
G32A C71U | 0.00395 ± 0.001 | 4470 ± 1500 | 0.000159 ± 1.6e-05 | 0.00122 ± 0.00011 | 0.00326 ± 0.00033 | 0.000487 ± 4.1e-05 | 3.68e-05 ± 5.2e-06
G32A C71A | 0.000628 ± 0.00012 | 2570 ± 890 | 5.89e-05 ± 1.2e-05 | 0.000293 ± 4.5e-05 | 0.00052 ± 6e-05 | 0.000112 ± 1.6e-05 | 
C34U U54C C68G | 1.64e-05 ± 4.9e-06 |  |  |  |  |  | 
A33U G41A U54G | 3.66e-05 ± 1.4e-06 | 2720 ± 360 |  |  | 2.88e-05 ± 1.2e-05 |  | 
G32A U57A | 3.77e-05 ± 3.1e-06 | 3000 ± 970 | < 1e-05 |  | 2.89e-05 ± 9.1e-06 |  | 
G35C C58U | < 1e-05 |  | < 1e-05 |  |  | < 1e-05 | 
G37C U45A | 0.00017 ± 2.9e-05 | 5840 ± 1900 |  | 4.81e-05 ± 9.9e-06 | 0.000109 ± 1.6e-05 | 2.56e-05 ± 1.3e-05 | 

Variant | kcat [1] [s⁻¹] | KM [2] [µM] | self-cleavage kobs at 160 uM GlcN6P [3] [s⁻¹] | self-cleavage kobs at 2500 uM GlcN6P [4] [s⁻¹] | self-cleavage kobs at 10000 uM GlcN6P [5] [s⁻¹] | self-cleavage kobs at 640 uM GlcN6P [6] [s⁻¹] | self-cleavage kobs at 40 uM GlcN6P [7] [s⁻¹]
G37A A53C C71U | 9.8e-05 ± 3.3e-06 | 1010 ± 85 |  | 6.98e-05 ± 1.5e-05 |  | 3.79e-05 ± 1.4e-05 | 
U31G U56A | 0.00739 ± 0.00043 | 4370 ± 320 | 0.000307 ± 0.00014 | 0.00263 ± 0.0008 | 0.00519 ± 0.00083 | 0.000903 ± 0.00017 | 6.8e-05 ± 9.6e-06
C34A G51C | < 1e-05 |  |  |  | < 1e-05 |  | < 1e-05
A33U A39C | 1.74e-05 ± 2.5e-06 | 3650 ± 1600 |  |  |  |  | 
A33U U55A | 0.000138 ± 2.3e-05 | 2730 ± 1200 |  | 7.49e-05 ± 6.9e-06 | 0.000105 ± 7.9e-06 |  | 
C34G U46G C50U C67U | 1.54e-05 ± 5.4e-06 |  |  |  |  |  | 
G32U U47A | 0.000688 ± 0.00026 |  | 5.78e-05 ± 1.8e-05 | 0.000375 ± 0.00014 | 0.000493 ± 0.00011 | 8.3e-05 ± 2e-05 | 
G37A G43U | 4.94e-05 ± 4.8e-06 | 620 ± 300 | < 1e-05 | 4.23e-05 ± 7.6e-06 | 4.34e-05 ± 1.1e-05 |  | < 1e-05
G32C C71G | 1.39e-05 ± 7.5e-07 | 86.6 ± 35 |  |  |  |  | 
G37A U54G | 0.00267 ± 0.00094 |  | 0.000132 ± 2.9e-05 | 0.000936 ± 0.00022 | 0.00234 ± 0.00032 | 0.000413 ± 9.4e-05 | 6.88e-05 ± 1.3e-05
C34U C50A | 1.45e-05 ± 5.7e-06 |  |  |  |  |  | 
U31G U56G C67U | 0.00109 ± 0.00017 | 2910 ± 800 | 8.73e-05 ± 3.2e-05 | 0.000493 ± 0.00014 | 0.00086 ± 0.00015 | 0.000176 ± 5.1e-05 | 
C34G C68A | 2.06e-05 ± 8.4e-06 |  |  |  |  |  | 
A33U G40C | 5.14e-05 ± 7.9e-06 |  |  |  |  |  | 
A33U C67A | 7.68e-05 ± 3.3e-06 | 4870 ± 530 |  | 2.58e-05 ± 7.7e-06 | 5.17e-05 ± 6e-06 |  | 
A33U C67U | 4.33e-05 ± 9.7e-06 |  |  | 2.49e-05 ± 6.9e-06 | 4.16e-05 ± 7.3e-06 | 3.39e-05 ± 1.5e-05 | 
A33G C68A | 1.39e-05 ± 1.5e-06 |  |  |  |  |  | 
G32A U49G | 5.97e-05 ± 1.4e-06 | 741 ± 85 |  | 4.58e-05 ± 1.1e-05 | 5.56e-05 ± 8.3e-06 | 2.83e-05 ± 1.2e-05 | < 1e-05
G32C U47A | 4.35e-05 ± 2.1e-06 | 1450 ± 320 |  | 2.87e-05 ± 1.3e-05 | 3.77e-05 ± 9.7e-06 |  | 
